From patent US20190309044A1, “POLYPEPTIDES AND USES THEREOF AS A DRUG FOR TREATMENT OF AUTOIMMUNE DISORDERS” (Compugen Ltd., priority 2017, published 2019)

Key:
Format in all cases: in vivo, mouse
[1] = test system: female C57BL/6 recipient mice; test: HY bone marrow transplantation model, chimerism and T cell subtypes by FACS
From the text: A transplantation model utilizing male bone marrow (BM) cells from C57BL/6 mice transplanted into female mice of the same starin was used to study whether C1ORF32 ECD-Fc induces immune tolerance. In this model BM cells of the male mouse are rejected by the female recipients due to mismatch in the minor histocompatibility antigen encoded by the Y chromosome (Hya). To allow identification of the male cells in the female mice blood, male mice expressing CD45.1 isotype were selected while the female mice carry CD45.2 isotype. This model provides a tool for testing the effect of potential drugs on induction of tolerance towards the grafted cells.
In this model, C1ORF32 ECD-Fc (SEQ ID NO:42) treatment started one week before bone marrow transplantation and continued for five weeks. Female recipient mice were followed for percentage of CD45.1+ and CD45.2+ cells present within the blood.
Female C57BL/6 recipient mice (CD45.2+) were sub-lethally irradiated with 200 rads/cGy 24 hours before transplantation of either female C57Bl/6 (CD45.1+) or male C57Bl/6 (CD45.1+) 5×10^6 bone marrow cells. Recipient mice were allocated into treatment groups as detailed below (n=6 per group). Treatments were given at 300 ug/dose i.p, 3×/wk starting one week prior to transplantation and continued for 4 weeks following transplantation, giving a total of 15 treatments during this 5 weeks period.
1. Female CD45.1 into female CD45.2 2. Male CD45.1 into female CD45.2+ anti-CD40L (300 ug/dose) (Clone MR-1; BioXCell, Cat#BE0017-1) 3. Male CD45.1 into female CD45.2+C1ORF ECD-Fc (SEQ ID NO:42) (300 ug/dose)2 4. Male CD45.1 into female CD45.2+ Control Ig (mouse IgG2a) (300 ug/dose)
Beginning at 2 weeks following bone marrow transplantation, blood samples from the tail were collected from each mouse once a week for 4 weeks. Approximately 2-3 drops of blood were collected per mouse into 200 ul of PBS+EDTA (50 mM), samples were spun down, and RBCs lysed with ammonium chloride. The cells were washed 3× with PBS, stained with the viability dye Aqua Dead Cell Stain (Invitrogen; Cat#L34957), blocked with Fc Receptor block (anti-mouse CD16/32; eBioscience; Cat#14-0161-86), and stained with anti-mouse CD45.1 APC-Cy7 (eBiosciences; Cat#47-0453-80) and anti-mouse CD45.2 FITC (eBioscience; Cat#11-0454-82). The analysis for chimerism was determined by flow cytometric analysis (on total live cells) for the percentage of CD45.1+ versus CD45.2+ cells present in the blood of female recipient mice.
During weeks 6, 7, and 8 the blood samples were also stained to determine the percentage of CD4+ Teff cells and CD4+ Treg cells present within the blood using the cellular markers CD44, CD25, and FoxP3. Details of the Abs used in the flow panels for weeks 6, 7, and 8 are listed below.

SJL/J mice [2] = test: PLP139-151/CFA R-EAE upon IL-10 or TGFb blockade, clinical score
Protocol: SJL/J mice were purchased from Harlan and primed with PLP139-151/CFA per the standard protocol, as described in 21.1.2 Methods, above). At disease remission the mice were split into 6 different treatment groups (n=5) as follows:
Mice were treated with Control Ig (mouse IgG2a) or C1ORF32 ECD-Fc (SEQ ID NO:42) at 100 ug/dose, each via an i.p. injection. This was followed with a second i.p. injection on the same day of either anti-IL-10 (rat IgG1), rat IgG1 (control Ab), or anti-TGFβ (mouse IgG1) at 100 ug/dose, each. All treatments were given 3×/wk for 2 wks, beginning on day +20 (onset of disease remission) and until day +31 post disease induction. All mice were followed for disease scores until day 44 post disease induction. On day 44, mice were sacrificed and analyzed for total T cell and Treg cell numbers in spleen and CNS. […]
Mice were followed for disease and scored on a 0-5 scale per standard lab protocol as follows: 0, no abnormality; 1, limp tail; 2, limp tail and hind limb weakness; 3, hind limb paralysis; 4, hind limb paralysis and forelimb weakness; and 5, moribund. Dead mice were scored with a score of 5 on the day of death only, and were not further scored on the next days.

SJL/J mice [3] = test: T cell and Treg counts in spleen and CNS by FACS, R-EAE with IL-10 or TGFb blockade; conditions: day 44
From the text: On day 44 post disease induction, the rest of the mice were sacrificed and spleens and CNS were taken for cell counts and cell population analysis as described below.
4. Experimental stains (CD45, CD3, CD4, CD25, FoxP3, Nrp-1, and Helios)
9. Gating scheme for flow: Singlets (FSC-A vs. FSC-H)->Cells (SSC-A vs. FSC-A)->Live (VID stain negative cells)->CD45hi->CD3/CD4+->CD25/FoxP3+->Helios/Nrp-1

B1: C1ORF32 ECD-Fc (SEQ ID NO:42): human-mouse fusion protein: human C1ORF32 ECD fused to mouse immunoglobulin Fc (SEQ ID NO:42) (protein)
chain: LQVTVPDKKKVAMLFQPTVLRCHFSTSSHQPAVVQWKFKSYCQDRMGESLGMSSTRAQSLSKRNLEWDPYLDCLDSRRTVRVVASKQGSTVTLGDFYRGREITIVHDADLQIGKLMWGDSGLYYCIITTPDDLEGKNEDSVELLVLGRTGLLADLLPSFAVEIMGSENLYFQGSGEPRGPTIKPCPPCKCPAPNLLGGPSVFIFPPKIKDVLMISLSPIVTCVVVDVSEDDPDVQISWFVNNVEVHTAQTQTHREDYNSTLRVVSALPIQHQDWMSGKEFKCKVNNKDLPAPIERTISKPKGSVRAPQVYVLPPPEEEMTKKQVTLTCMVTDFMPEDIYVEWTNNGKTELNYKNTEPVLDSDGSYFMYSKLRVEKKNWVERNSYSCSVVHEGLHNHHTTKSFSRTPGK
modifications: Fusion protein human C1ORF32-ECD fused to mouse IgG2a Fc
male CD45.1+ cells in the blood of recipient females ([1]; by week 4 post transplantation, maintained until week 8, 300 ug/dose i.p. 3x/wk 5 weeks): highly significant number of male CD45.1+ cells were present | effector/memory CD4+ T cells (CD45.1+/CD4+/CD44hi) in blood ([1]; week 6, vs Control Ig): decrease | CD45.2+ and CD4+ T cells within the spleen ([1]; week 8, vs Control Ig): lower percentage and number | donor Tregs (FoxP3+CD25+) in blood ([1]; week 8, vs Control Ig): significant increase | donor activated CD4+ T cells (FoxP3-CD25+) in blood ([1]; week 8, vs Control Ig): decrease | donor effector/memory CD4+ T cells (CD44hi) in blood ([1]; week 8, vs Control Ig): significant increase | recipients' CD45.2+ T cell populations in blood ([1]; week 8, vs Control Ig): No differences | beneficial effect on disease (SJL/J mice [2]; concomitant administration of anti-IL-10): abrogated the beneficial effect | beneficial effect on disease (SJL/J mice [2]; concomitant administration of anti-TGF): abrogated the beneficial effect | leukocytes and T cell counts in the CNS (CD45+, CD4+, CD25+/FoxP3+) (SJL/J mice [3]): pronounced decrease
